The supplement of paper PMC9876800

Test system: peptide library, one residue held at a place counted from the S/T acceptor
Assay: relative phosphorylation of the sub-library (ratio to the mean residue at this position); higher = residue favoured
Details: human
Outline: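 Relative sub-library phosphorylation is a ratio to the mean residue at the same position. Purified recombinant kinases were incubated under kinase-specific conditions with biotinylated degenerate peptide sub-libraries, each fixing one residue at one position around a central Ser/Thr, using 50 μM peptide and 50 μM ATP spiked with γ-32P-ATP for 90 min. Spots captured on streptavidin membranes were phosphorimaged and quantified by densitometry.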

Chain of DSTYK, construct: Full length (Q6XUX3 whole entry, looked up): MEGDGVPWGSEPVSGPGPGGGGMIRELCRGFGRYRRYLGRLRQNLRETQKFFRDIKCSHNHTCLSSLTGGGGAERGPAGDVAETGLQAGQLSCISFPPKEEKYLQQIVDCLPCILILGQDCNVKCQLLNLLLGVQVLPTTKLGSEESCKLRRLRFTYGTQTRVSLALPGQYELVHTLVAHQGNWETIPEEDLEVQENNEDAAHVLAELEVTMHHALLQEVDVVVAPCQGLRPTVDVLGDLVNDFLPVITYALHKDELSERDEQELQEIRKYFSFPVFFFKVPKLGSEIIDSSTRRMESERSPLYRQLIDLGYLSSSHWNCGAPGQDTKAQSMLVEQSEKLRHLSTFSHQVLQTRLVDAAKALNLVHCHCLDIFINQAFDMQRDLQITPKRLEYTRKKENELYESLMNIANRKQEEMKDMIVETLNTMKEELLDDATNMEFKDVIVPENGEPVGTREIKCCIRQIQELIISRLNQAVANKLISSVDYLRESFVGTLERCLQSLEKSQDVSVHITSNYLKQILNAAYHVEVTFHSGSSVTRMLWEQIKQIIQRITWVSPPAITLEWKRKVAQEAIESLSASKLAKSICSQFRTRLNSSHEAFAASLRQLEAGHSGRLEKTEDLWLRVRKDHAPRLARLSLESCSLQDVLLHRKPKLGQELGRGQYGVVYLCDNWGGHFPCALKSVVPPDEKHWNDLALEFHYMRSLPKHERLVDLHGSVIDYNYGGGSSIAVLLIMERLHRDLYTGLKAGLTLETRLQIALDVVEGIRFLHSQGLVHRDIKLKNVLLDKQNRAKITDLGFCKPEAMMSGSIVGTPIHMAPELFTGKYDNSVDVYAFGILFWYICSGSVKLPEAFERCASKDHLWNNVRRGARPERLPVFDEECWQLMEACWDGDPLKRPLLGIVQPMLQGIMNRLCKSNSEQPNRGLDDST
Chain of STK4, construct: Full length (Q13043 whole entry, looked up): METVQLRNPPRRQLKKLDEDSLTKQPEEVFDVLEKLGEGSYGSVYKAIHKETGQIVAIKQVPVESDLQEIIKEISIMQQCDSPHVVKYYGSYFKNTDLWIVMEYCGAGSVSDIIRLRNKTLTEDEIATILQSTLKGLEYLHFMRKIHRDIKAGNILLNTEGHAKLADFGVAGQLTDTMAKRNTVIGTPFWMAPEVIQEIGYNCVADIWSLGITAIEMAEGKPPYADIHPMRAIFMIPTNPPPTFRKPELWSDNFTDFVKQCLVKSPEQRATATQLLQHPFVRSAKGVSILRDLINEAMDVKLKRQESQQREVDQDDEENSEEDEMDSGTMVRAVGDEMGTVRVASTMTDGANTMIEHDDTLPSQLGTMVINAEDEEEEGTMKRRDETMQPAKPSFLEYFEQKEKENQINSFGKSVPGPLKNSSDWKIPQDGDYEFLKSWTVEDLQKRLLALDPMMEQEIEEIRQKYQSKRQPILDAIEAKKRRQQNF
Chain of CDK9, construct: Full length (P50750 whole entry, looked up): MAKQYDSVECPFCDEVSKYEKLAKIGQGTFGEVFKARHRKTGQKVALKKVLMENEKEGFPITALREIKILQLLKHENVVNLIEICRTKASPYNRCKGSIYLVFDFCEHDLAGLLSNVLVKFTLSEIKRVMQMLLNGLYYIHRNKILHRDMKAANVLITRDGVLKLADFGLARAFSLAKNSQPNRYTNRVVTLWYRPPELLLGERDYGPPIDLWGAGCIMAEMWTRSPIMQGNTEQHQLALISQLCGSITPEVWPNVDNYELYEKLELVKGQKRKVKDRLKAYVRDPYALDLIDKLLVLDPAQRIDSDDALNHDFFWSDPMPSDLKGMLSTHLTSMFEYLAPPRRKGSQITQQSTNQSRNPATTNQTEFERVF

CDK9, construct: Full length (from UniProt P50750)
relative phosphorylation
Details	at +1	at +2	at +3	at +4	at -1	at -2	at -3	at -4	at -5
A fixed	0.39	0.956	0.702	0.931	1.2	1.52	1.17	1.19	1.13
D fixed	0.167	0.493	0.429	0.79	0.328	0.322	0.339	0.607	0.572
E fixed	0.212	0.478	0.409	0.913	0.34	0.392	0.382	0.661	0.514
F fixed	0.398	0.953	0.593	1.01	0.974	0.919	1.01	1.13	1.25
G fixed	0.943	1.35	0.85	1.13	1.34	1.12	1.82	1.14	1.01
H fixed	0.286	1.57	3	1.45	1.02	0.973	1.12	1.13	1.27
I fixed	0.306	0.708	0.547	0.871	0.353	0.956	0.902	0.868	0.858
K fixed	0.328	1.24	0.828	0.752	1.51	0.91	0.939	1.1	1.09
L fixed	0.404	0.736	0.453	0.791	0.98	0.95	0.868	0.914	0.82
M fixed	0.347	0.769	0.478	0.893	1.75	1.53	0.963	0.969	0.853
N fixed	0.217	1.18	0.79	0.983	0.82	0.805	0.896	0.895	0.876
P fixed	11.4	0.652	1.38	0.984	1.14	1.32	1.15	1.06	1.01
Q fixed	0.285	0.928	0.987	0.928	1.08	0.796	0.813	0.804	0.833
R fixed	0.327	2.31	2.45	0.973	1.78	1.23	1.68	1.18	1.23
V fixed	0.388	0.734	0.545	0.84	0.559	0.821	0.939	0.855	0.892
W fixed	0.331	0.95	1.28	1.57	0.836	1.32	0.958	1.31	1.46
Y fixed	0.315	0.999	1.28	1.19	0.992	1.12	1.05	1.19	1.33
pThr fixed	0.374	0.622	0.475	0.979	0.284	0.487	0.615	0.723	0.719
pTyr fixed	0.379	0.536	1.18	1.2	0.558	0.526	0.607	0.838	0.714

DSTYK, construct: Full length (from UniProt Q6XUX3)
relative phosphorylation
Details	at +1	at +2	at +3	at +4	at -1	at -2	at -3	at -4	at -5
A fixed	0.815	1.14	0.976	1.07	1.15	0.947	0.937	1.05	1.27
D fixed	0.5	0.992	0.68	0.984	1.7	2.48	1.41	1.8	1.74
E fixed	0.639	1.52	0.934	1.05	2	2.13	0.887	1.52	1.43
F fixed	1.11	0.465	1.04	0.754	0.584	0.828	2.04	1.12	0.944
G fixed	1.19	0.729	0.872	1.12	0.813	1.11	0.697	1.34	1.31
H fixed	0.834	1.08	1.25	0.955	0.924	1.15	1.02	0.96	1.12
I fixed	1.52	0.48	0.915	0.663	0.577	0.701	1.07	0.721	0.619
K fixed	0.434	1.85	1.09	1.29	0.93	0.366	0.453	0.718	1.05
L fixed	1.54	0.461	1.1	0.754	0.97	1.25	1.7	0.862	0.732
M fixed	1.55	0.667	0.977	0.837	0.911	1.1	1.36	0.744	0.698
N fixed	0.878	1.3	0.83	1.11	1.48	1.03	0.676	0.908	0.935
P fixed	0.218	0.587	0.738	1.45	0.324	0.228	0.513	0.777	0.916
Q fixed	1.21	1.29	1.02	1.15	1.31	1.04	0.692	0.793	0.773
R fixed	0.499	2.58	1.3	1.23	1.2	0.467	0.471	0.639	0.835
V fixed	1.65	0.685	1.08	0.734	0.667	0.765	0.6	0.598	0.733
W fixed	0.993	0.595	1.09	1.04	0.682	0.717	1.29	1.63	1.17
Y fixed	1.41	0.569	1.11	0.797	0.774	0.69	1.19	0.819	0.722
pThr fixed	1.23	1.43	0.787	1.09	0.845	1.66	0.996	1.03	1.04
pTyr fixed	2.22	0.801	0.882	0.912	1.84	1.21	1.13	0.961	1.09

STK4, construct: Full length (from UniProt Q13043)
relative phosphorylation
Details	at +1	at +2	at +3	at +4	at -1	at -2	at -3	at -4	at -5
A fixed	0.647	0.612	0.745	0.743	0.705	0.763	0.756	0.771	0.964
D fixed	0.276	0.533	0.669	0.779	1.43	1.46	1.24	1.07	1.35
E fixed	0.245	0.413	0.627	0.668	0.881	1.09	0.916	1.12	0.833
F fixed	0.995	0.677	0.965	0.892	0.877	1.66	1.05	1.02	0.98
G fixed	0.641	0.75	0.917	0.987	1.1	0.747	1.07	0.983	0.91
H fixed	0.703	1.33	1.12	1.05	1.26	1.15	1.06	1.27	1.04
I fixed	1.91	0.449	0.682	0.738	0.329	0.507	0.622	0.766	0.581
K fixed	0.639	3.53	1.85	1.5	1.93	0.591	0.963	1.08	1.15
L fixed	2.6	0.759	0.779	1.01	0.822	0.596	0.577	0.749	0.773
M fixed	2.59	0.588	0.673	0.918	0.735	1	0.658	0.742	0.757
N fixed	0.558	1.13	1.21	1.24	1.45	1.28	1.25	1.06	1.02
P fixed	0.196	0.926	1.19	1.13	0.897	0.681	0.992	0.674	1.33
Q fixed	0.685	1.23	1.07	1.3	1.17	1.03	1.35	1.34	1.24
R fixed	0.615	2.29	2.01	1.19	1.33	0.582	0.78	1.01	1.08
V fixed	1.08	0.779	0.702	0.789	0.397	0.561	0.646	0.954	0.861
W fixed	1.79	0.495	0.884	1.27	0.776	1.59	1.63	1.17	1.09
Y fixed	0.816	0.524	0.898	0.793	0.926	1.72	1.45	1.24	1.05
pThr fixed	0.822	1.04	0.958	0.825	0.594	1.02	0.978	0.889	0.769
pTyr fixed	0.627	0.715	0.937	0.899	0.908	2.04	1.39	0.975	1.09
